# Changes are numbered by the printed parent chain. In names and notes the source's numbering stands.
# T1: mFcγRIV
# T1 construct: also called mouse FcγRIV; not shown: C-terminal His and GST tags (named only on our card)
# T1 chain: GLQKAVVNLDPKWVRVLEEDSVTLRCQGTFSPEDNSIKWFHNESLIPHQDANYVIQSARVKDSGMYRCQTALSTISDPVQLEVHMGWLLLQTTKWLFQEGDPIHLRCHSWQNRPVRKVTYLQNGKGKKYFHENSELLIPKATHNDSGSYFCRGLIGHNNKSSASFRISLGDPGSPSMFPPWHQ
# T2: cynoFcγRIIb (Macaca fascicularis, UniProt A0A140HDP4)
# T2 construct: extracellular region, C-terminal His- and GST-tag; also called cynomolgus monkey FcγRIIb
# T2 sequence (receptor extracellular region): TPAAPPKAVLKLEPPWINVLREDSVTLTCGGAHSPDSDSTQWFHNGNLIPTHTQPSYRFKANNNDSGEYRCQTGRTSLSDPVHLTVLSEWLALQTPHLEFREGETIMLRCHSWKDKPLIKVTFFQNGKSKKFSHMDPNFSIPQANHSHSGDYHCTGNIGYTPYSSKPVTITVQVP
# T3: mFcγRIIb (Mus musculus, UniProt P08101)
# T3 construct: extracellular region, C-terminal His- and GST-tag; also called mouse FcγRII
# T3 sequence (receptor extracellular region, looked up): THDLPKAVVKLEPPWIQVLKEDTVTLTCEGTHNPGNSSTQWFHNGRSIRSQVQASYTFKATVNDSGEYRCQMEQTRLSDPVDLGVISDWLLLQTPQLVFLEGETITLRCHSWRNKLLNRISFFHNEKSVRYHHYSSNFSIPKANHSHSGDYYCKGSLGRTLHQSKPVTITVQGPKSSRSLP
# T4: human FcγRIIb receptor protein (R&D Systems) (human, UniProt P31994 46-217)
# T4 construct: Bought protein injected over captured antibody in Biacore; also called CD32b
# T4 sequence (looked up): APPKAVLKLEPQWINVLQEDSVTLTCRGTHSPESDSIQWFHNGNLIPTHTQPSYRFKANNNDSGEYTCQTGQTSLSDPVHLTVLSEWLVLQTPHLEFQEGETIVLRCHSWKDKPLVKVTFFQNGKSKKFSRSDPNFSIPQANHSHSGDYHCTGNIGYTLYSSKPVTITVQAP
# T5: human FcγRIIa (131R), His- and GST-tagged (human, UniProt P12318 34-217)
# T5 construct: Expressed in HEK293T cells, purified by nickel chromatography; also called R131 FcγRIIa; not shown: 6xHis and GST tags of the pTT5 vector
# T5 sequence (looked up): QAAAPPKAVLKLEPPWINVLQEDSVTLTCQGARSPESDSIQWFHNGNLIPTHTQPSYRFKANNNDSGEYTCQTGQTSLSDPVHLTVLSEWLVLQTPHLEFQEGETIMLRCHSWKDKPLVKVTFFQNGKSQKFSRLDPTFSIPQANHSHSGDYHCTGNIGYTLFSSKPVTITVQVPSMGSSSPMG
# T6: human FcγRIIa (131H), His- and GST-tagged (human, UniProt P12318 34-217)
# T6 construct: also called H131 FcγRIIa; HIIa; not shown: 6xHis and GST tags of the pTT5 vector
# T6 sequence (looked up): T5 sequence (looked up) with R134H
# B1: A327N (antibody, human IgG1, kappa)
# heavy: not shown
# light: DIVMTQSPATLSLSPGERATLSCRSSKSLQNVNGNTYLYWFQQKPGQSPQLLIYRMSNLNSGVPDRFSGSGSGTEFTLTISSLEPEDFAVYYCMQHLEYPITFGAGTKLEIKRTVAAPSVFIFPPSDEQLKSGTASVVCLLNNFYPREAKVQWKVDNALQSGNSQESVTEQDSKDSTYSLSSTLTLSKADYEKHKVYACEVTHQGLSSPVTKSFNRGEC
# notes: HuAM4G7 anti-CD19 IgG1 (m1) with this Fc substitution, EU index; copies: 2 + 2
# B2: L234N (antibody, human IgG1, kappa)
# heavy: not shown
# light: B1 light
# notes: as for B1
# B3: S239E (antibody, human IgG1, kappa)
# heavy: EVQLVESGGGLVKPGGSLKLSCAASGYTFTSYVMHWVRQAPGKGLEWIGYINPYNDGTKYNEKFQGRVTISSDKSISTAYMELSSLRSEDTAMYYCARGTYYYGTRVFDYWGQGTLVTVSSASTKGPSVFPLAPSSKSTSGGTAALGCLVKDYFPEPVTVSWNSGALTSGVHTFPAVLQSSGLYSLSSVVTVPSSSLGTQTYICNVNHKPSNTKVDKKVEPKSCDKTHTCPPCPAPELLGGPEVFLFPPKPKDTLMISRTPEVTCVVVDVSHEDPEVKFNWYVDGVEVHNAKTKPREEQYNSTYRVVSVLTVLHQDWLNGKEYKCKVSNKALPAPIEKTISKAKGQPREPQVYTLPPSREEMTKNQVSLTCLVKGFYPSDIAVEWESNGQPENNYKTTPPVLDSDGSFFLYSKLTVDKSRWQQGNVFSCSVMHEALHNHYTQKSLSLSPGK
# light: B1 light
# notes: as for B1
# B4: L235E (antibody, human IgG1, kappa)
# heavy: not shown
# light: B1 light
# notes: as for B1
# B5: S298D (antibody, human IgG1, kappa)
# heavy: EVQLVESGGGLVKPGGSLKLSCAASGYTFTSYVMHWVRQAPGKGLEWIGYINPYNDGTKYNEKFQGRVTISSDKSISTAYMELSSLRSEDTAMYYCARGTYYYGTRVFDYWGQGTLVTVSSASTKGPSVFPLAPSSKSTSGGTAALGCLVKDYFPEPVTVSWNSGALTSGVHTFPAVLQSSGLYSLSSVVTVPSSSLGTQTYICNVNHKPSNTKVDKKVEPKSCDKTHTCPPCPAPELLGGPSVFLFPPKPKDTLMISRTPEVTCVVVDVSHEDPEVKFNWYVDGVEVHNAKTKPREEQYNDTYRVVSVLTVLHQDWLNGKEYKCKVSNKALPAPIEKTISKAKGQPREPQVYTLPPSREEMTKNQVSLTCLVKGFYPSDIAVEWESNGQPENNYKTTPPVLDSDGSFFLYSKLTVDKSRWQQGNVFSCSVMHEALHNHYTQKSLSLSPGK
# light: B1 light
# notes: as for B1
# B6: L235Y (antibody, human IgG1, kappa)
# heavy: not shown
# light: B1 light
# notes: as for B1
# B7: A327Q (antibody, human IgG1, kappa)
# heavy: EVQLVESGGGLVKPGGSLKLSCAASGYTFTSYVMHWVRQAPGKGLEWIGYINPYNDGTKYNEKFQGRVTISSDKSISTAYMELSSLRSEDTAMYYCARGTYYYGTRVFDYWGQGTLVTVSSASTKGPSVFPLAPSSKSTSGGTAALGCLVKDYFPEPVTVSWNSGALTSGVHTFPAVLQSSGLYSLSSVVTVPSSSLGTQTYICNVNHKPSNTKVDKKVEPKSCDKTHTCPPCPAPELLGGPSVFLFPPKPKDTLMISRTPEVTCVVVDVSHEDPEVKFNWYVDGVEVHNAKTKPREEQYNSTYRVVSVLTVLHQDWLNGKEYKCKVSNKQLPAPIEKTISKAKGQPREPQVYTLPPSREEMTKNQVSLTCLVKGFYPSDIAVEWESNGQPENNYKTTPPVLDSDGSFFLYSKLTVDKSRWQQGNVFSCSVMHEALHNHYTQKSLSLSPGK
# light: B1 light
# notes: as for B1
# B8: L235F/S267E (antibody, human IgG1, kappa)
# heavy: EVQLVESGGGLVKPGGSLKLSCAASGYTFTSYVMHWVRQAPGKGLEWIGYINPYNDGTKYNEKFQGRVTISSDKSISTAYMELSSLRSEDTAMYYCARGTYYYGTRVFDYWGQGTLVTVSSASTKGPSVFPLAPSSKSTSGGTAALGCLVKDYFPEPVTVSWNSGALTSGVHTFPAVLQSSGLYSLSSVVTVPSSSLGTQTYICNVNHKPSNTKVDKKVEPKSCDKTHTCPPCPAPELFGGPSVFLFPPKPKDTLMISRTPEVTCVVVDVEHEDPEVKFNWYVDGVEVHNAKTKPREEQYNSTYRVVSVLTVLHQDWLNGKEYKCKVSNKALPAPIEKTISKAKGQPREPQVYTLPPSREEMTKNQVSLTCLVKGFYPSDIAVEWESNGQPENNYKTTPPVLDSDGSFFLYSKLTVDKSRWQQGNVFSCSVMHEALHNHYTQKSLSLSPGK
# light: B1 light
# notes: HuAM4G7 anti-CD19 IgG1 (m1) with these Fc substitutions, EU index; copies: 2 + 2
# B9: S298E (antibody, human IgG1, kappa)
# heavy: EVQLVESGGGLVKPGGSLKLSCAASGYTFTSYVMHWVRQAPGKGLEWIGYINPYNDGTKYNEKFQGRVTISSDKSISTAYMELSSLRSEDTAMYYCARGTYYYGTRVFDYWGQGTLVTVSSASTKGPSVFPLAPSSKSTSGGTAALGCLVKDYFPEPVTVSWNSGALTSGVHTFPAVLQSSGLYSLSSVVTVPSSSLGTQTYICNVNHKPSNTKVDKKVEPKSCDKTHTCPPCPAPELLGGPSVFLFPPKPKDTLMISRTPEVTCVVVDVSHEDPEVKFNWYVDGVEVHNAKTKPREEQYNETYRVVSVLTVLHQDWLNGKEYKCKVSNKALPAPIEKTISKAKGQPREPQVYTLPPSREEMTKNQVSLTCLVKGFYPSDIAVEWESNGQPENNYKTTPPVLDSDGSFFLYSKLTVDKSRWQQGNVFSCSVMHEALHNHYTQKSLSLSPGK
# light: B1 light
# notes: as for B1
# B10: L235N (antibody, human IgG1, kappa)
# heavy: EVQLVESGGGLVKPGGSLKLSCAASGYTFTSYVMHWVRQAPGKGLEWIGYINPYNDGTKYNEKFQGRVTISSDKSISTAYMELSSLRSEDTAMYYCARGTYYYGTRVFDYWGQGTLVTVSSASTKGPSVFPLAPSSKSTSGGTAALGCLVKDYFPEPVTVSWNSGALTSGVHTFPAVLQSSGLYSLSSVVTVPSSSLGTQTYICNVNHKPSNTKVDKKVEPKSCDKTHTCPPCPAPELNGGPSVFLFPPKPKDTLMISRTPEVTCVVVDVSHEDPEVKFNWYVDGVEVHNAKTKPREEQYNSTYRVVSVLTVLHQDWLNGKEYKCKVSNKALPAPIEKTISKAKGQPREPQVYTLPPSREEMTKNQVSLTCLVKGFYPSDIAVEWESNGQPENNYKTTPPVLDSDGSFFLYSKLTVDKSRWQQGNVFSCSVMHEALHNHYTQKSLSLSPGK
# light: B1 light
# notes: as for B1
# B11: L234F (antibody, human IgG1, kappa)
# heavy: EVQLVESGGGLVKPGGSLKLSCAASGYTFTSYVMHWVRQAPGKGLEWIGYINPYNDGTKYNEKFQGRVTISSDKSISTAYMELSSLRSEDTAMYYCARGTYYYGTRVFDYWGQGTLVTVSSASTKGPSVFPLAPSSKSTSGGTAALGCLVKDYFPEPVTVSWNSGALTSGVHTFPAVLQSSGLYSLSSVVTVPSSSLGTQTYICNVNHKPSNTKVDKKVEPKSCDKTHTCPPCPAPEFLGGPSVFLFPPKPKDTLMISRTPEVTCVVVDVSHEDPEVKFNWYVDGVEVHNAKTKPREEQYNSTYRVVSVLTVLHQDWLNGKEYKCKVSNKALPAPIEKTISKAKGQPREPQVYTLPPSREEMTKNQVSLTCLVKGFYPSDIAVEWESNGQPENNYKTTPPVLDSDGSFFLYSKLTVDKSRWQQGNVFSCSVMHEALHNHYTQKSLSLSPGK
# light: B1 light
# notes: as for B1
# B12: V266M (antibody, human IgG1, kappa)
# heavy: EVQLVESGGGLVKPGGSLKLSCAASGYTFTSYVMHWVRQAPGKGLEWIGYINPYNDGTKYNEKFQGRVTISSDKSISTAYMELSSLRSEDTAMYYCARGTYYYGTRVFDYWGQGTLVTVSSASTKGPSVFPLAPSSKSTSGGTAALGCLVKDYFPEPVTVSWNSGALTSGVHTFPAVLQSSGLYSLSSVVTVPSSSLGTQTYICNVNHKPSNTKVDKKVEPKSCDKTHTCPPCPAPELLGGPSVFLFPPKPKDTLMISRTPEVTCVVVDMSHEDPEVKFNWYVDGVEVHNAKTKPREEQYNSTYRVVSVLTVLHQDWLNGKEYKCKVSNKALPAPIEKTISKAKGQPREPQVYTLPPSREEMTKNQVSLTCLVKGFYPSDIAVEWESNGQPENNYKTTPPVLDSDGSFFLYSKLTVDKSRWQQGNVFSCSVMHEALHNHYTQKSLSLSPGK
# light: B1 light
# notes: as for B1
# B13: anti-CD19 antibody HuAM4G7 IgG1 S267G (antibody)
# heavy: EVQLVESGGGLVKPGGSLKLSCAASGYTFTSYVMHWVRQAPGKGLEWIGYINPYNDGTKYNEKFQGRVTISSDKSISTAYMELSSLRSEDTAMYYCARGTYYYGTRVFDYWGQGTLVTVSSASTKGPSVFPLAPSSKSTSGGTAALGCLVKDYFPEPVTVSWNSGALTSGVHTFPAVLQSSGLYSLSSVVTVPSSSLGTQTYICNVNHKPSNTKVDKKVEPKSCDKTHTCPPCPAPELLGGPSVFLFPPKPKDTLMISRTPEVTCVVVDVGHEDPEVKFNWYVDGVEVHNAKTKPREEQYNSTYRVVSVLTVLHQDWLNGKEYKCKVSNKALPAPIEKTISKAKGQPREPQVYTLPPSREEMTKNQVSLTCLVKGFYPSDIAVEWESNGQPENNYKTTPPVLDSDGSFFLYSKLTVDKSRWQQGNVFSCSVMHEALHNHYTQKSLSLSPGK
# light: B1 light
# notes: Positions in EU numbering; copies: 2 + 2
# Biological target: T1, mFcγRIV
# Assay: SPR
# 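Throughout, for Fold vs WT IgG1 (off-rate): fold improvement over WT IgG1 so higher means slower dissociation than WT.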
row,Fold vs WT IgG1 (off-rate) [fold],Binder
1,1.16,B1
2,0.2,B2
3,1.93,B3
4,0.857,B4
5,0.618,B5
6,0.507,B6
7,0.361,B7
8,0.515,B8
9,0.136,B9
10,0.241,B10
11,0.144,B11

# Biological target: T7, cynoFcγRIIIa (Macaca fascicularis, UniProt Q8SPW2)
# T7 construct: extracellular region, C-terminal His- and GST-tag; also called cynomolgus monkey FcγRIIIa
# Assay: SPR
# T7 sequence (Q8SPW2 17-208): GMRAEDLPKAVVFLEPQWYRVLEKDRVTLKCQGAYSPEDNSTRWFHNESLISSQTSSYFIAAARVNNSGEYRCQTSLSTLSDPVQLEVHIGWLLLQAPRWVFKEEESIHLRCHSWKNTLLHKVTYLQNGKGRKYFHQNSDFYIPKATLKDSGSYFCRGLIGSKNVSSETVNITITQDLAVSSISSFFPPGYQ
row,Fold vs WT IgG1 (off-rate) [fold],Binder
1,0.313,B1
2,0.371,B2
3,2.26,B3
4,0.367,B4
5,0.309,B5
6,0.535,B6
7,0.433,B12
8,0.223,B7
9,0.255,B8
10,0.046,B9
11,0.351,B10
12,0.561,B11

# Biological target: T2, cynoFcγRIIb
# Assay: SPR
row,Fold vs WT IgG1 (off-rate) [fold],Binder
1,1.25,B3
2,0.92,B6
3,1.39,B8
4,0.936,B11

# Biological target: T3, mFcγRIIb
# Assay: SPR
row,Fold vs WT IgG1 (off-rate) [fold],Binder
1,0.643,B1
2,3.1,B3
3,1.02,B6
4,2.04,B12

# Biological target: T8, human FcγRIIIa (158V), His- and GST-tagged (human, UniProt P08637 17-208)
# T8 construct: also called V158 FcγRIIIa; VIIIa; not shown: 6xHis and GST tags of the pTT5 vector
# Assay: SPR
# T8 sequence (P08637 17-208 F176V): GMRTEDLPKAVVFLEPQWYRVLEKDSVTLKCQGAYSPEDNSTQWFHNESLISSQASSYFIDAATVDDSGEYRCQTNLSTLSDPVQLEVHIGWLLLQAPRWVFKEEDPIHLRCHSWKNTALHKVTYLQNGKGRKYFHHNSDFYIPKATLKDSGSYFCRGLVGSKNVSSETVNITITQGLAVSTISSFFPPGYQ
binding result,Fold vs WT IgG1 [fold],Kd [nM],Binder
no binding,–,–,B1
–,3.49,54.8,B3
–,0.504,380,B6
–,0.547,350,B12
no binding,–,–,B8
no binding,–,–,B11

# Biological target: T9, human FcγRI receptor protein (R&D Systems) (human, UniProt P12314 16-288)
# T9 construct: also called soluble FcγRI; solFcγRI
# Assay: SPR
# T9 sequence (P12314 16-288 limits assumed): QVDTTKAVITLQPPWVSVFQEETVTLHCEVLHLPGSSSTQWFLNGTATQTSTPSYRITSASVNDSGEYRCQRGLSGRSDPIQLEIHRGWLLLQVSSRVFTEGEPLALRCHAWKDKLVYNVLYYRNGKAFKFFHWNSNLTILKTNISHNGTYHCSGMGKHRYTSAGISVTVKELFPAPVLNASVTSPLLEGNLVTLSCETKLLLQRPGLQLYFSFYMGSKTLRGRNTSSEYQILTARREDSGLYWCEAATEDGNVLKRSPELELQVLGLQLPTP
Fold vs WT IgG1 [fold],Kd [nM],Binder
0.0279,11.8,B1
1.65,0.2,B3
0.00232,142,B6
1.25,0.264,B12
0.0176,18.7,B8
–,0.626,B13
0.0362,9.11,B11

# Biological target: T4, human FcγRIIb receptor protein (R&D …)
# Assay: SPR
Fold vs WT IgG1 [fold],Kd [nM],binding result,Binder
0.843,1740,–,B1
–,–,no binding,B2
0.803,1830,–,B3
0.55,2670,–,B4
0.797,1840,–,B5
1.05,1400,–,B6
1.91,770,–,B12
0.011,134000,–,B7
28.4,51.7,–,B8
–,–,no binding,B9
0.147,10000,–,B10
–,1450,–,B13
0.409,3590,–,B11

# Biological target: T5, human FcγRIIa (131R), His- and …
# Assay: SPR
Fold vs WT IgG1 [fold],Kd [nM],binding result,Binder
0.609,1410,–,B1
–,–,no binding,B2
0.688,1250,–,B3
0.333,2580,–,B4
1.45,592,–,B5
1.28,669,–,B6
3.13,274,–,B12
0.634,1350,–,B7
32.5,26.4,–,B8
–,–,no binding,B9
0.0356,24100,–,B10
–,517,–,B13
0.228,3760,–,B11

# Biological target: T6, human FcγRIIa (131H), His- and …
# Assay: SPR
binding result,Fold vs WT IgG1 [fold],Kd [nM],Binder
no binding,–,–,B1
–,0.49,1320,B3
–,1.35,479,B6
–,1.17,553,B12
–,0.402,1610,B8
no binding,–,–,B11

# Biological target: T2, cynoFcγRIIb
# Assay: SPR, off-rate
# Experimental: (§1) Variants were screened for receptor affinity using Biacore™ technology, also referred to as Biacore herein, a surface plasmon resonance (SPR) based technology for studying biomolecular interactions in real time. SPR measurements were performed using a Biacore 3000 instrument (Biacore, Piscataway, N.J.). A protein A/G (Pierce Biotechnology) CM5 biosensor chip (Biacore) was generated using a standard primary amine coupling protocol. All measurements were performed using HBS-EP buffer (10 mM HEPES pH 7.4, 0.15 M NaCl, 3 mM EDTA, 0.005% vol/vol surfactant P20, Biacore). Antibodies at 20 nM or 50 nM in HBS-EP buffer were immobilized on the protein A/G surface and FcγRs were injected. After each cycle, the surface was regenerated by injecting glycine buffer (10 mM, pH 1.5). Data were processed by zeroing time and response before the injection of FcγR and by subtracting appropriate nonspecific signals (response of reference channel and injection of running buffer). Kinetic analyses were performed by global fitting of binding data with a 1:1 Langmuir binding model using BIAevaluation software (Biacore).
# (§2) Variant antibodies were tested for their affinity to mouse or cynologous monkey FcγRs using Biacore SPR as described above. Specifically, antibodies were first immobilized on a protein A/G chip to high density, and then followed by injections of the extracellular domain of the mouse or cynologous monkey FcγR of interest. Both association and dissociation phases were tracked in real time using the Biacore technology.
row,binding result,Binder
1,no binding,B1
2,no binding,B2
3,no binding,B4
4,no binding,B5
5,no binding,B12
6,no binding,B7
7,no binding,B9
8,no binding,B10
9,no binding,B13

# Biological target: T3, mFcγRIIb
# Assay: SPR, off-rate
# Experimental: as §1, §2
row,binding result,Binder
1,no binding,B2
2,no binding,B4
3,no binding,B5
4,no binding,B7
5,no binding,B8
6,no binding,B9
7,no binding,B10
8,no binding,B13
9,no binding,B11

# — patent US20130315910A1 (Xencor, published 2013)
